The target of assay [1] is mouse/human type 2 prolyl 4-hydroxylase tetramer (mouse; human) (UniProt P07237). As to the kind of experiment: cell-based or functional assay.
The target in assay [2] is human type 1 prolyl 4-hydroxylase tetramer (human) (UniProt P13674). As to the kind of experiment: inhibition of prolyl 4-hydroxylase activity (2-oxo[1-14C]glutarate decarboxylation), insect cell extract.
Chain of human type 1 prolyl 4-hydroxylase tetramer (human) (P13674 18-534, chain 1 of 2): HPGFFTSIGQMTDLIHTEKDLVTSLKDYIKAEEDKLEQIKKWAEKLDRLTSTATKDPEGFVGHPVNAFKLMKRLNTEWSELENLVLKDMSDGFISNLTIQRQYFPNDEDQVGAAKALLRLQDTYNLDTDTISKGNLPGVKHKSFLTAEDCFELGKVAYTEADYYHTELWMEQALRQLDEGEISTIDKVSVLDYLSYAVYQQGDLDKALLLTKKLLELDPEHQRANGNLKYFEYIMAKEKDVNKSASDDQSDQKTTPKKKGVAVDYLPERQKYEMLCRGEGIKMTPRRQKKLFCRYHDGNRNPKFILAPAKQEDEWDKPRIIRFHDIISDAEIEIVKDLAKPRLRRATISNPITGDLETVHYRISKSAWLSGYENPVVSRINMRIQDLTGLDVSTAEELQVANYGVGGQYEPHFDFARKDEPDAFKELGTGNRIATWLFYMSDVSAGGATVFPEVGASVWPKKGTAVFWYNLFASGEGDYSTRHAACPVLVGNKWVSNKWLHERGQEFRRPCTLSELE
Chain of human type 1 prolyl 4-hydroxylase tetramer (human) (P07237 18-508, chain 2 of 2, further chain): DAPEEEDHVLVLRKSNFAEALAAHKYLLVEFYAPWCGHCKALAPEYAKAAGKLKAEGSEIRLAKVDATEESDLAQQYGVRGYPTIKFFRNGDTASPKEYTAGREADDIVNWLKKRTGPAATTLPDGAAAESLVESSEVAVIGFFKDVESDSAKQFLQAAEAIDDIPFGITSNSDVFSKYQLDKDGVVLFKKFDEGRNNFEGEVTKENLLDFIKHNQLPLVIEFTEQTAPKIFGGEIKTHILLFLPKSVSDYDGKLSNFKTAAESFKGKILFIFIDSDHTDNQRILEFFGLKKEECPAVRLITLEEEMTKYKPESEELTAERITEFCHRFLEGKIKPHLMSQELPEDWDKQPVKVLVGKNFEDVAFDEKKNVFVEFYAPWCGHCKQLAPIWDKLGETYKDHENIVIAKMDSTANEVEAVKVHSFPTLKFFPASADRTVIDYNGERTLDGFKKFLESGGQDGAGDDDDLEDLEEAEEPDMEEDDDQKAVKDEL

Chain of mouse/human type 2 prolyl 4-hydroxylase tetramer (mouse; human) (chain, as listed by the source, chain 1 of 2): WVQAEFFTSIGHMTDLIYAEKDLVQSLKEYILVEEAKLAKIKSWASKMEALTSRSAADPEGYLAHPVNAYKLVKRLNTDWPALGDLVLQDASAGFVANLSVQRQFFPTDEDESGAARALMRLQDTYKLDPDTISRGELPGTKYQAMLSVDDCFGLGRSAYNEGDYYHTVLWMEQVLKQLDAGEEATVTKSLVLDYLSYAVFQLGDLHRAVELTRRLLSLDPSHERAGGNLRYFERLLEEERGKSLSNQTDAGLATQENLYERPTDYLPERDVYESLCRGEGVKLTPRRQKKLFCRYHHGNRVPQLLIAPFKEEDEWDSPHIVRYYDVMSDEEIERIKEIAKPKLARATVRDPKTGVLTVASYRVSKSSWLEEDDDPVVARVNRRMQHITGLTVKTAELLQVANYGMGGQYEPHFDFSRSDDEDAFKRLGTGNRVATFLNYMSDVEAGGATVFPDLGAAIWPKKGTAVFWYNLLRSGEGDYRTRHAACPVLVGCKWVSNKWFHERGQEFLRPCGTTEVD
Chain of mouse/human type 2 prolyl 4-hydroxylase tetramer (mouse; human) (P07237 18-508, chain 2 of 2): as the sequence (P07237 18-508, chain 2 of 2, further chain) above

By Ki is commonly meant a dissociation constant, usually derived from enzyme kinetics or from competition with a known ligand. A high value points to weaker binding. In assay [1], Poly(L-proline), Mr 44,000 (peptide) displayed an IC50 (inhibition of prolyl 4-hydroxylase activity; printed in the Ki row) of 30 µM. Moreover, the Ki in assay [2] came out at 0.02 µM.
The like results for Poly(L-proline), Mr 7000 (peptide) were, in that order, 300 µM and 0.5 µM.

The record behind these values is patent publication US20020177203A1, “Alpha2 subunit of prolyl 4-hydroxylase” (priority 1996, published 2002).
